Usually IC50 stands for the concentration needed to halve the response being measured. Broadly, the Kd is the equilibrium constant for the complex coming apart. Low values mean higher affinity, high ones lower affinity.

One experiment has as its target T1, PscF from strain PAO1 (Pseudomonas aeruginosa, UniProt P95434 1-85).
T1 chain: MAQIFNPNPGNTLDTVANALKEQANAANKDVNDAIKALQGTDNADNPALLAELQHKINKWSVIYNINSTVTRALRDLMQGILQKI
As to the kind of experiment: ELISA; competition with biotinylated P5G10. In general terms: In an ELISA, binding on a coated surface is turned into a signal by an enzyme label.

The target of the next experiment is biotinylated PcrV (Pseudomonas aeruginosa, UniProt G3XD49 1-294, biotin). As to the kind of experiment: BLI.

B1: P5G10 (human anti-PscF monoclonal antibody) (antibody, V domains shown)
VH: VQLQQWGAGLLKPSETLSLTCAVYGGSFSDYYWTWIRQAPGKGLEWIGENRHRGTTNYNPSLKGRVTISVDTSKNQFTLKVTSVTAADTAVYFCARQRGSSGGAPSGLDVWGQGTTVTVSS
VL: QSVLTQPPSASGTPGQRVTISCSGASSNIGTNYVFWYQQFPGTAPKLLIYRNGHRPSGVPDRFSGSKSGASASLAISGLRSDDEADYYCATWDDSLSSQVFGGGTKLTVL
B1: the IC50 in the experiment with PscF from strain PAO1 was 0.46 µg/mL.

B2: P5B3 (human monoclonal antibody, IgG1) (antibody, V domains shown)
VH: EVQLVESGGGIVQPGGSLRLSCAASGFTFSSYWMHWVRQAPGKGLVWVSRINSDGSIINYADSVKGRFTISRDNAKKTLHLQMNSLRAEDTAVYYCAKDGVYDALDIWGQGTMVTVSS
VL: SYELTQPPSVSVSPGQTARITCSADALPNQYTYWYQQKPGQAPVLIMYKDSERPSGIPERFSGSSSGTTVTLTISGVQAEDEADYYCQSTDSRGTYVVFGGGTKLTVL
The molecule B2 showed an equilibrium dissociation constant (Kd) with biotinylated PcrV of 0.0239 nM.

The values above are taken from article PMC12912723 (2026).
